From the nanobody polyreactivity screen of Harvey et al. (2022)

assay: yeast display, Sf9 membrane polyspecificity reagent, FACS + sequencing; frameworks hold sequencing errors
Summary of the method: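 A nanobody's polyreactivity label depends on the gate it was sorted from. Yeast display cells were stained with 10% biotinylated, detergent-solubilized Sf9 membrane reagent for 1 hour at 4 °C, enriched on streptavidin microbeads and sorted by FACS. The low and high (top ~1%) gates were set on anti-HA fluorescence for expression and streptavidin fluorescence for reagent binding.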

Sequence	polyreactivity (PSR sort gate)
QVQLVASGGGLVQAGGSLRLSCAASGSTLDVYAMGWYRQAPGKERELVASISGSGGRTYYADSVKGRFTISRDNAKNTVYLQLNSQNPEDTAVYYCAADVRSYVASRSYRYDYWGQGNQVTVSS	low polyreactivity
QVQLVASGGGLVQAGGSLRLSCAATGSIFYFYAMGWYRPAPWKERELVAAITDCGASTRYADSVKGRFTISRDNAKNTVYLQMNSLKPEDTAVYYCAAVRYHISYREYYWGQGTQVTESS	high polyreactivity
QVQLVASGGGLVQAGGTLRLSCAASGRIFGRYGMGWYSQAPGKERELVAAISRSGDRTYYADSVKGRFTISRDNAKNTVYLPMNSLKPEDTAVYYCAAYSYRYDYWGQGTQVTVAS	high polyreactivity
QVQLVASGGGLVQSGGSLRLSCAASGLTFEQYAMGWYRQAPGKERELVAAISRRGTSTYYADSVKARFTISRDYAKNYVYLQMNSRKPEDTAVYYCNAGWWYLGSPFDRDYWGQGTLVTVSS	high polyreactivity
QVQLVDSCGGLVQAGGSLRLSCYDSGSTFPYKAMGWYRQAPGKERELVAAITSGASTNYADSVKGRFTISRDNAKNTVYLQMNSLTPEDTAVYYCAAQSYGKRIWSPRFQLNYWGQGTQVTVSS	low polyreactivity
QVQLVDSGGCLFQAGGTLRLSCAASGFTLRAYAMGWYRQGPGKEREFVAVISRSDGSTYYADTVKGRFTISRENAKNTVYLQMNSLKPEDSAVYYCADKHRGAKYDYWGQGTQVTVSS	low polyreactivity
QVQLVDSGGCLVQAGGSLRLSCAASGRTDGINAMGWYRQAPGKERELVAAIDSIDGTTYYADSVKGRFTISRDNAKNTVYLQMNSLKQEDTAVYYCAAEFISSYDYWGQGTQVTVSS	high polyreactivity
QVQLVDSGGCLVQAGGSLRLSCAASGRTFYRYAMGWYRQAPGKEREFVARITTSGGSTYYADSVKGRFTISRDNAKNTVYLKMNSLKPEDTEVYYCNARGVTYAFFRFDYWGQGTQVTVSS	high polyreactivity
QVQLVDSGGGIVQAGGSLRLSCPASGSTFGSYALGWSRQKPGKEREWVAAITSAGSTNYADSVKGRFTISRDNAKNTVYLQMNSLKPEDTAVYYCNDVRYYSYQYDPEVTHRYGYWGQGSQVTVSS	high polyreactivity
QVQLVDSGGGLDQAGGSLPLSCAASGSTFVAYAMGWYRQAPGKERELVADNSTSDGSTRYADSVKGRFTISRDNAKNTVYLQMNSLKPEDTAVYYCAAGSEYYSYGGVRFSFYYWGQGTQVTVSS	low polyreactivity
QVQLVDSGGGLDQAGGSLRLSCAAAGSIFYSYAMGWYSQATGKDSELVADISSDGSTNYADSVKGRFTISRDNAKNTVYVQINSLKPEDTAVYYCAKKPSSARYVTIGFDEWGHGTQVTVSS	low polyreactivity
QVQLVDSGGGLFQPGGSLRLSCAASGSTFSDNAMGWYRQAPGKERELVASISSDDGSTYADSVKGRFTISRDNAMNTVYLQMNSLKSEDTAVYYCAADGFLAIYAAEYDYWGQGTQVTVSS	low polyreactivity
QVQLVDSGGGLVPAGGSLRLSCAASGFTFTRYVMGWYRQAPGKERELVAAISGSGGSTNYADSVKGRFTISRDNAKNTVYLQMNSLKPEDTAVYYCAVGYRGWDGYWGQGTQVTVSS	high polyreactivity
QVQLVDSGGGLVQAGGGLRLSCAASGRIFVKYGMGWYRQAPGKERELVAAISWTGGSTYYADSVKGRFTISRDNEKNTVYLQMNSLKPEDTAVYYCAKSFGIWHARWLTYDYWGQGTQVTVSS	low polyreactivity
QVQLVDSGGGLVQAGGILRLSCAASGRTFWIYAMGWYRQAPGKERQLVAAITGSGGSTYYADSVKGRFTISRDNAKNTGYLQMICLKPEDTAVYYCNARVPDCYKWSAYYSHDYWGQGTQVTVSS	low polyreactivity
QVQLVDSGGGLVQAGGILRLSSPASGSTFKYYTMGRSRQAPGKEREWVAGITLSGPTTYYADSVKGRFTISRDNAKNTVYLQMNSLKPEDTAVYYCAADYYHDFNAYYYWGQGTQVTVSS	low polyreactivity
